Assay [1] concerns the target T1, monomeric human Fc-fused SARS-CoV-2_RBD-SD1 (SARS-CoV-2, UniProt P0DTC2 319-591).
Assay [2] addresses T1, monomeric human Fc-fused …. Nature of the assay: ELISA with periplasmic extract, RBD captured by VHH72-Fc.

B1: VHH3.183 (VHH)
VHH: QVQLQESGGGLVQPGGSLRLSCAASGLDYYAIGWFRQAPGKEREGLSRIESSDGSTYYADSVKGRFTISRDNTKNTVYLQMNSLKPEDTAVYYCATDPIIQGSSWYWTSWGQGTQVTVSS
In turn, B1 displayed a koff in assay [1] of 0.0014 s⁻¹.

B2: VHH3.94 (VHH)
VHH: QVQLQESGGGLVQPGGSLRLSCAASGKAVSISDMGWYRQPPGKQRELVATITKSGSTNYANSAQGRFTISRDNAKSAVYLEMNSLKPEDTAVYYCNAWLPYGMGPDYYGMELWGEGTQVTVSS
Take B2: the binding result in assay [2] is on record as “binds”.

B3: VHH3.89 (VHH)
VHH: QVQLQESGGGLVQPGGSLRLSCAASGFTLDYYAIGWFREVPGKEREGLSRIDSSDGSTYYADSVKGRFTISRDNTKNIVYLQMNNLKPEDTAVYYCATDPIIQGRNWYWTGWGQGTQVTVSS
For B3, the affinity in assay [1], expressed as Kd, was 0.292 nM.

The values are drawn from patent US20240101647A1 (VIB VZW, published 2024).
